Values joined by “and” are separate entries in the source; they are usually repeats but may differ in a detail not shown here. Equal entries are not always repeated. Each block holds one substance with its values, some of them ahead of it.
Legend:
Assay in all cases: SEC; analytical SEC, Superdex 200 Increase 10/300 GL, buffer W (100 mM Tris-HCl pH 8.0, 150 mM NaCl, 2.5 mM EDTA); protein solutions from the two AEC elution peaks; oligomeric state from the elution volume by the column's calibration
[1] = molecular target: Chlamydomonas reinhardtii truncated hemoglobin THB11, full length (Chlamydomonas reinhardtii)
[2] = molecular target: THB11-C (THB11 lacking the C-terminal 225 residues) (Chlamydomonas reinhardtii)
[3] = molecular target: THB11-N (THB11 lacking the N-terminal 41 amino acids) (Chlamydomonas reinhardtii)

- stoichiometry N [1]: 3 and 7
Substance: Chlamydomonas reinhardtii truncated hemoglobin THB11, full length (natural protein)

- stoichiometry N [2]: 3
Substance: THB11-C (THB11 lacking the C-terminal 225 residues) (domain or fragment)

- stoichiometry N [3]: 3 and 7
Substance: THB11-N (THB11 lacking the N-terminal 41 amino acids) (domain or fragment)
